According to patent publication US20100291070A1:

Target: PA1698 protein on Pseudomonas aeruginosa PA103 strain cells (Pseudomonas aeruginosa (PA103 strain))
Assay: whole cell ELISA on immobilised P. aeruginosa PA103, 50 ug/well

- absorbance at 450 nm: 0.084
Substance: negative control IgG fraction purified from control rat sera obtained by administering only adjuvant (antibody)
